Values of other authors as cited in US20200069786A1, “COMPOSITION AND PROCESS FOR PREPARING VACCINE” (TREOS BIO ZRT., priority 2018, published 2020).
Where two headings read alike, the source gives them in different places.

System: TSA
[1] = TSA expression rate in Cervical cancer
[2] = TSA expression rate in HEAD and NECK
[3] = TSA expression rate in MELANOMA
[4] = TSA expression rate in PROSTATE cancer
[5] = TSA expression rate in LUNG cancer
[6] = TSA expression rate in BLADDER cancer
[7] = TSA expression rate in Esophageal
[8] = TSA expression rate in GASTRIC cancer
[9] = TSA expression rate in LEUKEMIAS
[10] = TSA expression rate in PEDIATRIC

Molecule | TSA Expression Rate (ER) (BREAST) [%] | TSA Expression Rate (ER) (LUNG) [%] | TSA Expression Rate (ER) (OVARIAN) [%] | TSA Expression Rate (ER) (THYROID) [%] | Expression Rate (ER) % (TSA expression rate in CRC) [%] | Expression Rate (ER) % [1] [%] | Expression Rate (ER) % [2] [%] | Expression Rate (ER) % (TSA expression rate in Kidney) [%] | Expression Rate (ER) % [3] [%] | Expression Rate (ER) % [4] [%] | Expression Rate (ER) % [5] [%] | TSA Expression Rate (ER) (BRAIN) [%] | TSA Expression Rate (ER) (HCC) [%] | TSA Expression Rate (ER) (PANCREATIC) [%] | Expression Rate (ER) % [6] [%] | Expression Rate (ER) % [7] [%] | Expression Rate (ER) % [8] [%] | Expression Rate (ER) % [9] [%] | Expression Rate (ER) % (TSA expression rate in LYMPHOMAS) [%] | Expression Rate (ER) % [10] [%]
CRISP2 (protein, UniProt P16562 22-243, looked up) Cysteine-rich secretory …: KDPAFTALLTTQLQVQREIVNKHNELRKAVSPPASNMLKMEWSREVTTNAQRWANKCTLQHSDPEDRKTSTRCGENLYMSSDPTSWSSAIQSWYDEILDFVYGVGPKSPNAVVGHYTQLVWYSTYQVGCGIAYCPNQDSLKYYYVCQYCPAGNNMNRKNTPYQQGTPCAGCPDDCDKGLCTNSCQYQDLLSNCDSLKNTAGCEHELLKEKCKATCLCENKIY | 15 | 29 | 14 | 0 | 0 | 17 | 11 | 14 | 6 | 38 |  |  |  |  |  |  |  |  |  | 
MORC1 (protein, UniProt Q86VD1 1-984, looked up) MORC family CW-type zinc …: MDDRYPALQRAQLRLDFIHANSTTHSFLFGALAELLDNARDAGAERLDVFSVDNEKLQGGFMLCFLDDGCGMSPEEASDIIYFGRSKKRLSTLKFIGQYGNGLKSGSMRIGKDFILFTKKEETMTCVFFSQTFCEEESLSEVVVPMPSWLIRTRESVTDDPQKFAMELSIIYKYSPFKTEAELMQQFDVIYGKCGTLLVIYNLKLLLNGEPELDVKTDKEDILMAGALEDFPARWSFRAYTSVLYFNPWMRIFIQAKRVKTKHLCYCLYRPRKYLYVTSSFKGAFKDEVKKAEEAVKIAESILKEAQIKVNQCDRTSLSSAKDVLQRALEDVEAKQKNLKEKQRELKTARTLSLFYGVNVENRSQAGMFIYSNNRLIKMHEKVGSQLKLKSLLGAGVVGIVNIPLEVMEPSHNKQEFLNVQEYNHLLKVMGQYLVQYCKDTGINNRNLTLFCNEFGYQNDIDVEKPLNSFQYQRRQAMGIPFIIQCDLCLKWRVLPSSTNYQEKEFFDIWICANNPNRLENSCHQVECLPSIPLGTMSTISPSKNEKEKQLRESVIKYQNRLAEQQPQPQFIPVDEITVTSTCLTSAHKENTKTQKIRLLGDDLKHESLSSFELSASRRGQKRNIEETDSDVEYISETKIMKKSMEEKMNSQQQRIPVALPENVKLAERSQRSQIANITTVWRAQPTEGCLKNAQAASWEMKRKQSLNFVEECKVLTEDENTSDSDIILVSDKSNTDVSLKQEKKEIPLLNQEKQELCNDVLAMKRSSSLPSWKSLLNVPMEDVNLSSGHIARVSVSGSCKVASSPASSQSTPVKETVRKLKSKLREILLYFFPEHQLPSELEEPALSCELEQCPEQMNKKLKMCFNQIQNTYMVQYEKKIKRKLQSIIYDSNTRGIHNEISLGQCENKRKISEDKLKNLRIKLALLLQKLQLGGPEGDLEQTDTYLEALLKEDNLLFQNNLNKVTIDARHRLPLEKNEKTSEN | 0 |  | 14 | 0 | 0 | 0 |  | 0 | 19 | 0 | 18 |  |  |  |  |  |  |  |  | 
EpCAM (protein, UniProt P16422 24-314, looked up) Epithelial cell adhesion …: QEECVCENYKLAVNCFVNNNRQCQCTSVGAQNTVICSKLAAKCLVMKAEMNGSKLGRRAKPEGALQNNDGLYDPDCDESGLFKAKQCNGTSMCWCVNTAGVRRTDKDTEITCSERVRTYWIIIELKHKAREKPYDSKSLRTALQKEITTRYQLDPKFITSILYENNVITIDLVQNSSQKTQNDVDIADVAYYFEKDVKGESLFHSKKMDLTVNGEQLDLDPGQTLIYYVDEKAPEFSMQGLKAGVIAVIVVVVIAVVAGIVVLVISRKKRMAKYEKAEIKEMGEMHRELNA | 76 | 78 | 92 | 83 | 88 | 36 |  | 55 |  | 98 |  | 16 | 41 | 85 | 54 | 81 | 90 |  |  | 
MAGE-C1 (protein, UniProt O60732 1-1142, looked up) Melanoma-associated antigen C1: MGDKDMPTAGMPSLLQSSSESPQSCPEGEDSQSPLQIPQSSPESDDTLYPLQSPQSRSEGEDSSDPLQRPPEGKDSQSPLQIPQSSPEGDDTQSPLQNSQSSPEGKDSLSPLEISQSPPEGEDVQSPLQNPASSFFSSALLSIFQSSPESTQSPFEGFPQSVLQIPVSAASSSTLVSIFQSSPESTQSPFEGFPQSPLQIPVSRSFSSTLLSIFQSSPERTQSTFEGFAQSPLQIPVSPSSSSTLLSLFQSFSERTQSTFEGFAQSSLQIPVSPSFSSTLVSLFQSSPERTQSTFEGFPQSPLQIPVSSSSSSTLLSLFQSSPERTHSTFEGFPQSLLQIPMTSSFSSTLLSIFQSSPESAQSTFEGFPQSPLQIPGSPSFSSTLLSLFQSSPERTHSTFEGFPQSPLQIPMTSSFSSTLLSILQSSPESAQSAFEGFPQSPLQIPVSSSFSYTLLSLFQSSPERTHSTFEGFPQSPLQIPVSSSSSSSTLLSLFQSSPECTQSTFEGFPQSPLQIPQSPPEGENTHSPLQIVPSLPEWEDSLSPHYFPQSPPQGEDSLSPHYFPQSPPQGEDSLSPHYFPQSPQGEDSLSPHYFPQSPPQGEDSMSPLYFPQSPLQGEEFQSSLQSPVSICSSSTPSSLPQSFPESSQSPPEGPVQSPLHSPQSPPEGMHSQSPLQSPESAPEGEDSLSPLQIPQSPLEGEDSLSSLHFPQSPPEWEDSLSPLHFPQFPPQGEDFQSSLQSPVSICSSSTSLSLPQSFPESPQSPPEGPAQSPLQRPVSSFFSYTLASLLQSSHESPQSPPEGPAQSPLQSPVSSFPSSTSSSLSQSSPVSSFPSSTSSSLSKSSPESPLQSPVISFSSSTSLSPFSEESSSPVDEYTSSSDTLLESDSLTDSESLIESEPLFTYTLDEKVDELARFLLLKYQVKQPITKAEMLTNVISRYTGYFPVIFRKAREFIEILFGISLREVDPDDSYVFVNTLDLTSEGCLSDEQGMSQNRLLILILSIIFIKGTYASEEVIWDVLSGIGVRAGREHFAFGEPRELLTKVWVQEHYLEYREVPNSSPPRYEFLWGPRAHSEVIKRKVVEFLAMLKNTVPITFPSSYKDALKDVEERAQAIIDTTDDSTATESASSSVMSPSFSSE | 16 |  | 20 | 22 |  |  | 15 | 0 | 45 |  | 19 | 13 | 20 | 0 | 27 | 12 | 6 | 70 | 13 | 39
MAGE-A2 (protein, UniProt P43356 1-314, looked up) Melanoma-associated antigen 2: MPLEQRSQHCKPEEGLEARGEALGLVGAQAPATEEQQTASSSSTLVEVTLGEVPAADSPSPPHSPQGASSFSTTINYTLWRQSDEGSSNQEEEGPRMFPDLESEFQAAISRKMVELVHFLLLKYRAREPVTKAEMLESVLRNCQDFFPVIFSKASEYLQLVFGIEVVEVVPISHLYILVTCLGLSYDGLLGDNQVMPKTGLLIIVLAIIAIEGDCAPEEKIWEELSMLEVFEGREDSVFAHPRKLLMQDLVQENYLEYRQVPGSDPACYEFLWGPRALIETSYVKVLHHTLKIGGEPHISYPPLHERALREGEE |  | 40 | 7 | 9 | 18 |  | 38 | 7 | 62 | 18 |  | 28 | 25 |  | 25 | 53 | 31 | 11 |  | 60
